Experiments:
Test in all cases: SPR
[1] = molecular target: homo-DLE variant (of Table 1, compared with control mAb1)
hemi-YWA variant = molecular target: hemi-YWA variant
[2] = molecular target: homo-DLE variant (of Table 2, prepared by control mAb2)
[3] = molecular target: homo-L235V/F243L/R292P/Y300L/P396L (VLPYLL) variant
afucosyl mAb = molecular target: afucosyl mAb

Row | Kd [1] | Kd (hemi-YWA variant) | Fold KD = KD (control mAb2)/KD (Fc variant) [2] | Fold KD = KD (control mAb2)/KD (Fc variant) [3] | Fold KD = KD (IgG1)/KD (Fc variant) (afucosyl mAb) | Substance
1 | 5.5 nM | 280 nM | – | – | – | human FcγRIIIa^F158, extracellular region (from UniProt P08637 17-208) (receptor)
2 | – | – | 126 fold | 33 fold | 45 fold | human FcγRIIIa^V158, extracellular region (receptor)
3 | – | – | 1.4 fold | – | 0.85 fold | human FcγRIIa^H131, extracellular region (from UniProt P12318 34-217) (receptor)
4 | – | – | 2.9 fold | – | 1.8 fold | human FcγRIIa^R131, extracellular region (receptor)
5 | – | – | 6.7 fold | 0.54 fold | – | human FcγRIIb, extracellular region (from UniProt P31994 43-217) (receptor)
6 | – | – | 3.4 fold | – | – | human FcγRIa, extracellular region (from UniProt P12314 16-292) (receptor)
